Source: PMC5743061

What was measured:
[1] = biological target: CHC17 clathrin heavy chain (human (endogenous in HeLa)) (UniProt Q00610)
[2] = biological target: CHC22 clathrin heavy chain (human (endogenous in HeLa)) (UniProt P53675)
CHC22Δx9 (human) = CHC22Δx9 (human) (UniProt P53675); experiment: deep-etch electron microscopy; purified CHC isoforms adsorbed on mica flakes, quick-frozen, freeze-fractured, deep-etched, platinum-replicated; CHC22Δx9 released in high Tris buffer pH 7.0, CHC17 released in HEPES buffer pH 7.0
[3] = biological target: T1, CHC17 clathrin heavy chain (human (endogenous in HeLa)), Q00610; experiment: as above; details: remark: other sources report otherwise
T1 chain: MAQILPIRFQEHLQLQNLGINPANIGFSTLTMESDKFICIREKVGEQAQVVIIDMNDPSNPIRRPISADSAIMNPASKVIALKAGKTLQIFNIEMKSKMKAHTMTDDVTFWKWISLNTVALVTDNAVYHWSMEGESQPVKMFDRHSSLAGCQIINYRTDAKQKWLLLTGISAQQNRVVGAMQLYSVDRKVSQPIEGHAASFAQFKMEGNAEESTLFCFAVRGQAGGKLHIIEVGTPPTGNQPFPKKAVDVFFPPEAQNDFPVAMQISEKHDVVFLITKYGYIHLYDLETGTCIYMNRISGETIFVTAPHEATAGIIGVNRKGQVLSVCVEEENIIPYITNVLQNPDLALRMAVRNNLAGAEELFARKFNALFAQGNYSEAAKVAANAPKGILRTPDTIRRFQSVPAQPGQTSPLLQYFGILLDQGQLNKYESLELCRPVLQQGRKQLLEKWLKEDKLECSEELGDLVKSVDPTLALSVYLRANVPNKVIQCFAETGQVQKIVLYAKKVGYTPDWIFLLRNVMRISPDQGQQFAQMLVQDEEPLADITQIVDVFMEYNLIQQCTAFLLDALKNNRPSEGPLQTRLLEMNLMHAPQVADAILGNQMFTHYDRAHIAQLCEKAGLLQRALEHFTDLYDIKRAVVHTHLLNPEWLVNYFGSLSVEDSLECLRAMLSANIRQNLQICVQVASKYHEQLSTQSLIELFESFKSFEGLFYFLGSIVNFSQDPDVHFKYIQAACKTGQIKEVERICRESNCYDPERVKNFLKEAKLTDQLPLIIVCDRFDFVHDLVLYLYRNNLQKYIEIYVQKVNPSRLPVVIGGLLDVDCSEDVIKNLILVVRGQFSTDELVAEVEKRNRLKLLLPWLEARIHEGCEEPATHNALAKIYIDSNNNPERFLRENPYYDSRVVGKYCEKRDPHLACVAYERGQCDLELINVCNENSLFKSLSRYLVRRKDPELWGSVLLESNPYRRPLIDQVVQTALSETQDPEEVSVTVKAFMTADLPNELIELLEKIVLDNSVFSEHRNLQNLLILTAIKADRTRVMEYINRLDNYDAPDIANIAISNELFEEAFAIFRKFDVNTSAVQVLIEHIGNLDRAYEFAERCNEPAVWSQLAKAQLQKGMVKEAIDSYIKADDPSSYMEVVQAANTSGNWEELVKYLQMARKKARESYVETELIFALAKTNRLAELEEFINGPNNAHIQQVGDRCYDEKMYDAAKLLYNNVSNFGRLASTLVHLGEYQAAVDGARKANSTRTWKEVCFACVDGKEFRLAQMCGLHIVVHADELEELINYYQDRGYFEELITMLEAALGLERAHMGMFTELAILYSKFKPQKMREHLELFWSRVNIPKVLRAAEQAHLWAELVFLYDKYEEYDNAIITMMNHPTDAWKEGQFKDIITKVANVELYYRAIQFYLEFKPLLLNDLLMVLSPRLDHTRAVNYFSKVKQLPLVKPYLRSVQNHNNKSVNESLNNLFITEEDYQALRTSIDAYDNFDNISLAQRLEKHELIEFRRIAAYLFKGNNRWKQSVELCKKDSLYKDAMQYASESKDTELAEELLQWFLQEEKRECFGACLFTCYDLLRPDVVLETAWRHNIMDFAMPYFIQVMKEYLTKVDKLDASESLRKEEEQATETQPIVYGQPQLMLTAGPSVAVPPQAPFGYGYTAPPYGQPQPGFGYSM

Sequence of UniProt P53675 (P53675 whole entry, canonical isoform): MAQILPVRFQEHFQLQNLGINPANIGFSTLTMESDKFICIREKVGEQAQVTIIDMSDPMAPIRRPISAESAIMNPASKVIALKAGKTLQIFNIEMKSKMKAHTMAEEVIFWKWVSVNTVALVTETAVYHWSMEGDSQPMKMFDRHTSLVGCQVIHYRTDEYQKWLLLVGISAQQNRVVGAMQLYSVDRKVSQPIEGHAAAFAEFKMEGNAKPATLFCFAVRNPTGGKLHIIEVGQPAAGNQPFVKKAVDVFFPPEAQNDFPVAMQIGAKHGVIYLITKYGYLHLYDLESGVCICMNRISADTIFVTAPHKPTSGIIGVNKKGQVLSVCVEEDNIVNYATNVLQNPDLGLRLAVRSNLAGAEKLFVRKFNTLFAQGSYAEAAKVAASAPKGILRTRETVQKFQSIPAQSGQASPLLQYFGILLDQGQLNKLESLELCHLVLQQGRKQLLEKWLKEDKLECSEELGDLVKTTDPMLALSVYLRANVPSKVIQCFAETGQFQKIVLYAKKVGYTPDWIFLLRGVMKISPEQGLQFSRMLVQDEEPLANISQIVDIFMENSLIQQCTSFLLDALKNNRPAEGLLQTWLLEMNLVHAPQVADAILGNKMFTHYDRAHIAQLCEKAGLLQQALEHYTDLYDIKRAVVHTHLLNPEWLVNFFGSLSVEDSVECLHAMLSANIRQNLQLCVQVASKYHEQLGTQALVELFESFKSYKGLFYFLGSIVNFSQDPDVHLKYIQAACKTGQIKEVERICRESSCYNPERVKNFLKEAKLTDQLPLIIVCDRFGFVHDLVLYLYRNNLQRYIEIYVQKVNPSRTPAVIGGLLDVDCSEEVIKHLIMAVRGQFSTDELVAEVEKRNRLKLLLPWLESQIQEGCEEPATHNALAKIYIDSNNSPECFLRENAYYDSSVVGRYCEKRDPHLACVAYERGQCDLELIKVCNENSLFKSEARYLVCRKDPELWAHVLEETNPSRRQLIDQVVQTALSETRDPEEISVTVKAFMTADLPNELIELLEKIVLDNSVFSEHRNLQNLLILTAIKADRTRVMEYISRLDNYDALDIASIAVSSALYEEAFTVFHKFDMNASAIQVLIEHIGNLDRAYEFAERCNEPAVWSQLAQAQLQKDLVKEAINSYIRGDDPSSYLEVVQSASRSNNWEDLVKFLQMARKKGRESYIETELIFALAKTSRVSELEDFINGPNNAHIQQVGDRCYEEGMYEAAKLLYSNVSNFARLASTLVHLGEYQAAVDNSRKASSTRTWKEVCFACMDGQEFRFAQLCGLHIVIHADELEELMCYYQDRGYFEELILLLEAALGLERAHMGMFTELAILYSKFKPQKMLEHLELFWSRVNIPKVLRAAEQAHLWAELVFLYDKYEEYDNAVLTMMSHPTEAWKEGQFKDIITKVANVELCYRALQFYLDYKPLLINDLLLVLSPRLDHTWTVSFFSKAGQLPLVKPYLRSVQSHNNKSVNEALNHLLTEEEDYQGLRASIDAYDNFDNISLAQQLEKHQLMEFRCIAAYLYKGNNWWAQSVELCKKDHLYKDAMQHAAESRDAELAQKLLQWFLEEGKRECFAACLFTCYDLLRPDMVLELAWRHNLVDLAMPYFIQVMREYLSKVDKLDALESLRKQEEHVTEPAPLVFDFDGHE

Molecule: 70-kDa heat-shock cognate protein (Hsc70) (from UniProt P63018 1-646) (enzyme)
- release of CHC from HeLa CCVs into the supernatant, S/(S+P) by immunoblot, with uncoating complex (Hsc70 1.3 μM + GST-auxilin(401–910) 0.13 μM) plus ATP 0.5 mM, 10 min, 37 °C [1]: > 50%
- release of CHC from HeLa CCVs into the supernatant, S/(S+P) by immunoblot, with uncoating complex (Hsc70 1.3 μM + GST-auxilin(401–910) 0.13 μM) plus ATP 0.5 mM, 10 min, 37 °C [2]: 16%

Molecule: CHC22Δx9 (from UniProt P53675 1-1640) (natural protein)
- stoichiometry N (CHC22Δx9 (human)): 3

B1: CHC17 clathrin heavy chain, Q00610 1-1675 (natural protein)
chain: T1 chain
- stoichiometry N [3]: 3
